Test results as given in patent US20160185876A1 (DEVELOPMENT CENTER FOR BIOTECHNOLOGY, published 2016).
One block for each binder: values may come before it.

Columns and labels:
[1] = biological target: T1, human ENO1 protein (human, UniProt P06733 1-434, limits assumed); assay: SPR, BIAcore 2000, ENO1 injected, 25 degree C
T1 construct: The source and construct of the ENO1 protein used in ELISA and SPR are not described; also called alpha-enolase; enolase-1
From the text: To know the biding kinetics difference among individual antibodies, surface plasmon resonance (SPR) measurement with a BIAcore 2000 (BIAcore, Inc., Piscataway, N.J.) was used as previously described (Karlsson & Falt, (1997) J. Immunol Methods 200:121-133). Carboxymethylated dextran biosensor chips (CMS, BIAcore Inc.) were activated with N-ethyl-N′-(3-dimethylaminopropyl)-carbodiimide hydrochloride (EDC) and N-hydroxysuccinimide (NHS) according to the supplier's instructions. Chimera EN10 mAb was diluted with 10 mM sodium acetate, pH 4.8, into 5 microgram/ml before injection at a flow rate of 20 micro Uminute to achieve approximately 100 response units (RU) of coupled protein followed by the injection of 1M ethanolamine to block unreacted groups. For kinetics measurements, two-fold serial dilutions of ENO1 (0.3125 nM to 40 nM) were injected in HBS-P Biacore running buffer provided by the manufacturer (BIAcore, Inc., Piscataway, N.J.) at 25 degree C. at a flow rate of 25 microL/min, and binding responses on the EN10 mAb were corrected by subtraction of responses on a blank flow cell. Association rates (kon or ka) and dissociation rates (koff or kd) were calculated using a simple one-to-one Langmuir binding model with separate fittings of kon and koff was used. (BIAcore™ Evaluation Software version 3.2).

[2] = biological target: T1, human ENO1 protein; assay: ENO1 binding ELISA

T1 sequence (P06733 whole entry): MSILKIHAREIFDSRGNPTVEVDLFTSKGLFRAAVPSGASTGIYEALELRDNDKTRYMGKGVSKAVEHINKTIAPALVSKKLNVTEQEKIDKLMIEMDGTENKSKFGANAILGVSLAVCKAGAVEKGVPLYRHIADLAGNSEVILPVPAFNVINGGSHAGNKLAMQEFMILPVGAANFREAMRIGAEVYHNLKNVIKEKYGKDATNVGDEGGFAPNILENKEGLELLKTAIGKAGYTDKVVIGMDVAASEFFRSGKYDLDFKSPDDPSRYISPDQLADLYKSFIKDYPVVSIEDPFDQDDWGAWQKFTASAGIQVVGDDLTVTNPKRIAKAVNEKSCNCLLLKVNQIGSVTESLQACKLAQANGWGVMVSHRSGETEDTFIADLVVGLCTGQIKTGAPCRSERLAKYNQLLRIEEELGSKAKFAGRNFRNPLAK

Kd [1]: 0.5 nM
koff [1]: 0.000176 s⁻¹
kon [1]: 351000 M⁻¹ s⁻¹
B1: hum EN10 mAb 4D5 (antibody, V domains shown)
VH: EVQLVESGGGLVQPGGSLRLSCAASGYTFTSCVMNWVRQAPGKGLEWVAYINPYNDGTKYNEKFKGRFTISRDDSKNTLYLQMNSLRAEDTAVYYCAREGFYYGNFDNWGQGTLVTVSS
VL: DIQMTQSPSSLSASVGDRVTITCRASENIYSYLTWYQQKPGKAPKLLIYNAKTLPEGVPSRFSGSGSGTDFTLTISSLQPEDFATYYCQHHYGTPYTFGQGTKLEIKR
notes: Humanized variable regions on human IgG; also called humanized EN10 mAb 4D5; 4D5 humanized edition

Kd [2]: 0.0365 nM
Kd [1]: 0.219 nM
koff [1]: 0.000116 s⁻¹
kon [1]: 531000 M⁻¹ s⁻¹
B2: hum EN10 mAb IMGT (antibody, V domains shown)
VH: QVQLVQSGAEVKKPGASVKVSCKASGYTFTSCVMNWVRQAPGQGLEWMGYINPYNDGTKYNEKFKGRVTMTTDTSTSTAYMELRSLRSDDTAVYYCAREGFYYGNFDNWGQGTLVTVSS
VL: B1 VL
notes: Humanized variable regions on human IgG; also called Hum EN10 IMGT; humanized EN10 mAb IMGT
